Data set [1] deals with T1, recombinant IFNR1-Fc (extracellular domain of interferon receptor 1) (UniProt P15261).
T1 sequence: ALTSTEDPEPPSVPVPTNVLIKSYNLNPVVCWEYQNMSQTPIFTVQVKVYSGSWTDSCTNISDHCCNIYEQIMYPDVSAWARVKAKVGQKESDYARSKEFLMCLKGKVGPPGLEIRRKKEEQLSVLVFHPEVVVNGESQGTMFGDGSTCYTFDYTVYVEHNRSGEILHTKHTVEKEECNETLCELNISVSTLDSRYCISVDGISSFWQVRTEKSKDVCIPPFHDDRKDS

Data set [2] deals with the molecule itself. The experiment in a line: non-reducing SDS-PAGE; murine serum spiked with IFN-γ, incubated with shed ARTC2.2 and 32P-NAD+; gel run under non-reducing conditions, autoradiography.

B1: ADP-ribosylated IFN-γ (ligand)
chain: HGTVIESLESLNNYFNSSGIDVEEKSLFLDIWRNWQKDGDMKILQSQIISFYLRLFEVLKDNQAISNNISVIESHLITTFFSNSKAKKDAFMSIAKFEVNNPQVQRQAFNELIRVVHQLLPESSLRKRKRSRC
modifications: ADP-ribosyl-arginine at R128
On to B1, for which the phosphorylation of STAT1 in primary peritoneal macrophages (flow cytometry, serial titrations); loss of potency against unmodified IFN-γ; restored by de-ADP-ribosylation with ARH1 in data set [1] is 4 fold.

B2: recombinant murine IFN-γ (ligand, UniProt P01580 23-155, looked up)
chain: HGTVIESLESLNNYFNSSGIDVEEKSLFLDIWRNWQKDGDMKILQSQIISFYLRLFEVLKDNQAISNNISVIESHLITTFFSNSKAKKDAFMSIAKFEVNNPQVQRQAFNELIRVVHQLLPESSLRKRKRSRC
notes: interferon gamma, murine, recombinant; also called interferon-gamma; native IFN-γ homodimer; source: bought: Immunotools
B2: the binding result in data set [2] is on record as “binds”.

The record behind these values is paper PMC7983947, “ADP-Ribosylation Regulates the Signaling Function of IFN-γ” (Frontiers in Immunology, 2021).
